According to patent US20250340623A1 (AC IMMUNE, published 2025):
Numbering of substitutions follows the chain as printed. Numbers in names are those of the source. Where no end group is shown, it is not given here. The star is where a group is joined. Biotin = O=C1N[C@H]2[C@H](CS[C@H]2CCCCC(=O)*)N1; Ahx = NCCCCCC(=O)O

T1: 82-96aa
T1 construct: also called alpha-synuclein peptide 82-96
T1 peptide: {Biotin-Ahx}-VEGAGSIAAATGFVK

T2: 91-105aa
T2 peptide: {Biotin-Ahx}-ATGFVKKDQLGKNEE

T3: 118-132aa
T3 peptide: {Biotin-Ahx}-VDPDNEAYEMPSEEG

T4: 127-140aa
T4 peptide: {Biotin-Ahx}-MPSEEGYQDYEPEA

T5: 1-14aa
T5 construct: also called alpha-synuclein peptide 1-14
T5 peptide: MDVFMKGLSKAKEG-biotin

T6: 1-15aa
T6 construct: also called alpha-synuclein peptide 1-15
T6 peptide: {Biotin-Ahx}-MDVFMKGLSKAKEGV

T7: 46-60aa
T7 construct: also called alpha-synuclein peptide 46-60
T7 peptide: {Biotin-Ahx}-EGVVHGVATVAEKTK

T8: 10-24aa
T8 construct: also called alpha-synuclein peptide 10-24
T8 peptide: {Biotin-Ahx}-KAKEGVVAAAEKTKQ

T9: 64-78aa
T9 construct: also called alpha-synuclein peptide 64-78
T9 peptide: {Biotin-Ahx}-TNVGGAVVTGVTAVA

B1: ACI-7079-2506F3-Ab1 (antibody, V domains shown)
VH: QVQLQQPGAELVKPGASVKLSCKASGYTFTTYWMQWVKQRPGQGLEWIGEIDPSDSYINYNQKFKGKATLTVDTSSSTAFMQLSSLTSEDSAVYYCARGMMDYWGQGTSVTVSS
VL: DVLMTQTPLSLPVSLGDQASISCRSSQSIVHSNGNTYLEWYLQKPGQSPKLLIYKVSNRFSGVPDRFSGSGSGTDFTLKISRVEAEDLGVYYCFKGSHVPYTFGGGTKLEIK
notes: mouse hybridoma mAb; VH/VL only; also called 2506F3E12
B2: ACI-7067-1206E5-Ab1 (antibody, V domains shown)
VH: QVQLQQSGPELVKPGASVKMSCKASGYTFTDYVISWVKQGTGQGLEWIGEIYPGNDSTYYNEKFKGKATLTADKSSNTAYMQLSSLTSEDSAVYFCAREGVSNGYLYLSMDYWGQGTSVTVSS
VL: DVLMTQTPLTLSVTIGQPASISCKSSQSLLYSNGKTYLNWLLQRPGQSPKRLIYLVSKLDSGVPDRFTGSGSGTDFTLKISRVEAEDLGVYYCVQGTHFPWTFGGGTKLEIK
notes: mouse hybridoma mAb; VH/VL only; also called 1206E5D2
B3: ACI-7079-2603C1-Ab3 (antibody, V domains shown)
VH: QVQLQQPGADLVKPGASVKLSCKASGYTFTSYWMQWTKQRPGQGLEWIGEIDPSDSYANYNQKFKGKATLTVDKYSSTAYMQLNSLTSEDSAVYYCALYDGPSYWGQGTLVTVS
VL: ENVLTQSPAIMSASPGEKVTMTCSAGSSVSYMHWFQQKSSTSPKLWIYDTSKLPSGVPGRFSGSGSGNSYSLTISSMEAEDVATYYCFQGSGYPYTFGGGTKLEIK
notes: mouse hybridoma mAb; VH/VL only; also called 2603C1H6
B4: ACI-7079-2501B11-Ab3 (antibody, V domains shown)
VH: QVQLQQSGPELVKPGASVKISCKASGYAFSSFWMNWMKQRPGKGLEWIGRIYPGDGDAHYNGEFKGRATLTADKSSSTAYMQLSSLTSEDSAVYFCARKGDFYGSNYDYWGQGTTLTVSS
VL: QAVVTQESALTTSPGETVTLTCRSSTGAVTTSNYANWVQEKPDHLFTGLIGGTNNRAPGVPARFSGSLIGDKAALTITGAQTEDEAIYFCALWYSNHLVFGGGTRLTVL
notes: mouse hybridoma mAb; VH/VL only; also called 2501B11C7
B5: ACI-7079-2606A6-Ab2 (antibody, V domains shown)
VH: QVQLQQSGPELVKPGASVKISCKASGFAFSSSWMNWVKQRPGKGLEWVGRIFPGDGDTNYDRKFKDKATLTADKSSSTAYMQLSSLTSEDSAVYFCARWTGGYDWFAYWGQGTLVTVSA
VL: DIVLTQSPASLAVSLGQRATISCRASQSVSTSNYNYLHWYQQKPGQPPKLLITYASNLESGVPARFSGSGSGTDFTLNIHPVEEGDTATYYCQHSWEIPLTFGAGTKLELK
notes: mouse hybridoma mAb; VH/VL only; also called 2606A6D5
B6: ACI-7067-4813-R4A-G7-rec1 (antibody, mouse IgG2a, V domains shown)
VH: EVQLEESGGGLVHPKGSLKLSCAASGFTFNSYAMHWVRQAPGKGLEWVARIRSKRSNYATYYADSVKDRFTISRDDSQSMVYLEMNNLEAEDTATYYCVRGGREAMDFWGQGTSVTVSS
VL: B4 VL with L98W, R105K
notes: from phage display of immunised mice; positive clones expressed recombinantly as murine IgG2a; VH/VL only; also called ACI-7067-R4A-G7-Ab-1
B7: ACI-8032-6313G2-Ab1 (antibody, V domains shown)
VH: EVQLQQSGPELVKPGASVKISCKASGYTFTDYYMNWVKQSHGKSLEWIGDIDPNNGVTSYSQKFKGKATLTVDKSSSTAYMELRSLTSEDSAVYYCARTGYYGTSLYYAMDYWGQGTSVTVSS
VL: DIVMSQSPSSLAVSAGEKVTMNCKSSQSLLNSRTRKNYLAWYQQKPGQSPKLLIYWASTRESGVPDRFIGSGSGTGFTLTISSVQAEDLAVYYCKQSYDLWTFGGGTKLEIK
notes: mouse hybridoma mAb; VH/VL only; also called 6313G2A10

Legend:
alpha-synuclein seeds = alpha-synuclein seeds (UniProt P37840 1-140); experiment: cell-based or functional assay
82-96aa = target: T1, 82-96aa; experiment: indirect ELISA on biotinylated 15-mer peptide
Protocol: (§1) Serum-free supernatants were harvested from stable hybridomas. The supernatants containing antibodies of interest were then screened by an indirect ELISA assay to determine epitopes. Epitopes were first determined using a library of 15-mer peptides covering the entire sequence of human alpha-synuclein protein, spanning amino acids (aa) 1-140 with 9aa offset and […] overlap. […] Briefly, streptavidin-coated ELISA plates were blocked overnight at 4° C. […] Plates were washed with PBS/0.05% Tween®20 and then incubated with the hybridoma supernatants at 1/100 dilution for 1 hour at 25° C.

91-105aa [1] = target: T2, 91-105aa; experiment: indirect ELISA on biotinylated 15-mer peptide
Protocol: as §1

118-132aa = target: T3, 118-132aa; experiment: indirect ELISA on biotinylated 15-mer peptide
Protocol: as §1

127-140aa = target: T4, 127-140aa; experiment: indirect ELISA on biotinylated 15-mer peptide
Protocol: as §1

1-14aa [2] = target: T5, 1-14aa; experiment: indirect ELISA on biotinylated 15-mer peptide
Protocol: as §1

1-15aa [3] = target: T6, 1-15aa; experiment: indirect ELISA on biotinylated 15-mer peptide
Protocol: as §1

46-60aa = target: T7, 46-60aa; experiment: indirect ELISA on biotinylated 15-mer peptide
Protocol: as §1

10-24aa [4] = target: T8, 10-24aa; experiment: indirect ELISA on biotinylated 15-mer peptide, supernatant 1/100
Protocol: as §1

[5] = target: T10, monomeric alpha-synuclein (UniProt P37840 1-140); experiment: SPR, captured mAb
Protocol: (§2) Non-covalent immobilization of alpha-synuclein antibodies was performed using a target immobilization method of 2000 response units (RU). Antibodies were diluted in 10 mM sodium acetate pH 5.5 (GE Healthcare, BR-1003-52) to a final concentration of 5 μg/mL.
(§3) Binding affinity of alpha-synuclein antibodies to monomeric or fibrillar alpha-synuclein species was performed using a single-cycle kinetics method. The instrument was primed with 1×HBS-P+ buffer (10× stock from GE Healthcare, BR-1003-52 diluted in Milli-Q water). Injections of monomeric alpha-synuclein (aSyn) (Boston Biochem, SP-485), increasing in concentration from 0.62-50 nM prepared from serial 2-fold dilutions, were performed with contact times of 300 sec/injection at a flow rate of 30 μL/min. A dissociation phase of 900 sec followed the final 50 nM injection. Regeneration of the sensor to the goat anti-mouse antibody layer was achieved using 3 regenerations of 10 mM Glycine pH 1.7. […] Regeneration of the sensor to the goat anti-mouse antibody layer was achieved using 3 regenerations of 10 mM Glycine pH 1.7. Results obtained from single-cycle kinetics were evaluated by Biacore T200 evaluation software with 1:1 binding homogenous Langmuir model (with a global Rmax) with Cycle 5 as a blank subtraction. The following kinetic parameters were obtained: on-rate (ka), off-rate (kd), affinity constant (KD, ratio of kd by ka), maximum response (Rmax), and goodness of fit (Chi2).
(§4) Non-covalent capture of the alpha-synuclein antibodies was performed in three separate runs.

alpha-synuclein fibrils [6] = target: T11, alpha-synuclein fibrils (UniProt P37840 1-140); experiment: SPR, captured mAb
Protocol: as §2, §3, §4

64-78aa = target: T9, 64-78aa; experiment: indirect ELISA on biotinylated 15-mer peptide
Protocol: as §1

[7] = target: human full-length alpha-synuclein (human, UniProt P37840 1-140); experiment: indirect ELISA on coated full-length alpha-synuclein, O.D. 405 nm
Protocol: Antibody binding to human full-length alpha-synuclein was determined using an indirect ELISA. Full-length alpha-synuclein was diluted in carbonate/bicarbonate buffer pH 9.6 (Sigma, C3041) to a final concentration of 2.5pg/ml and coated onto ELISA plates overnight at 4° C. After washing with PBS/0.05% Polyethylene glycol sorbitan monolaurate (Tween®20) and blocking for 1 hour at 37° C. (PBS/0.05% Tween®20/1% BSA), plates were incubated for 2 hours at 37° C. with three-fold dilution series of alpha-synuclein antibodies from 1 μg/mL to 0.0005 μg/mL using PBS/0.05% Tween®20/1% BSA as diluent.

28-42aa = experiment: indirect ELISA on biotinylated 15-mer peptide, supernatant 1/100
Protocol: as §1

10-24aa [8] = target: T8, 10-24aa; experiment: indirect ELISA on biotinylated 15-mer peptide
Protocol: as §1

1-14aa [9] = target: T5, 1-14aa; experiment: indirect ELISA on biotinylated peptide, supernatant 1/100
Protocol: as §1

1-15aa [10] = target: T6, 1-15aa; experiment: indirect ELISA on biotinylated 15-mer peptide, supernatant 1/100
Protocol: as §1

91-105aa [11] = target: T2, 91-105aa; experiment: as above
Protocol: as §1

alpha-synuclein fibrils [12] = target: T11, alpha-synuclein fibrils; experiment: SPR, captured mAb; alpha-synuclein fibrils
Protocol: Any non-covalently bound antibodies were removed by three successive regenerations of 10 mM Glycine pH 1.7 (GE Healthcare, 28-9950-84). Immobilization levels were evaluated following ethanolamine capping (Bound) and finally following regeneration (Final). Non-covalent immobilization of alpha-synuclein antibodies was performed using a target immobilization method of 2000 response units (RU). Antibodies were diluted in 10 mM sodium acetate pH 5.5 (GE Healthcare, BR-1003-52) to a final concentration of 5 μg/mL.
Binding affinity of alpha-synuclein antibodies to monomeric or fibrillar alpha-synuclein species was performed using a single-cycle kinetics method. The instrument was primed with 1×HBS-P+ buffer (10× stock from GE Healthcare, BR-1003-52 diluted in Milli-Q water). Injections of monomeric alpha-synuclein (aSyn) (Boston Biochem, SP-485), increasing in concentration from 0.62-50 nM prepared from serial 2-fold dilutions, were performed with contact times of 300 sec/injection at a flow rate of 30 μL/min. A dissociation phase of 900 sec followed the final 50 nM injection. Regeneration of the sensor to the goat anti-mouse antibody layer was achieved using 3 regenerations of 10 mM Glycine pH 1.7. […] Results obtained from single-cycle kinetics were evaluated by Biacore T200 evaluation software with 1:1 binding homogenous Langmuir model (with a global Rmax) with Cycle 5 as a blank subtraction. […]

[13] = target: T10, monomeric alpha-synuclein; experiment: SPR, captured mAb; alpha-synuclein monomers
Protocol: as §2
Binding affinity of alpha-synuclein antibodies to monomeric or fibrillar alpha-synuclein species was performed using a single-cycle kinetics method. The instrument was primed with 1×HBS-P+ buffer (10× stock from GE Healthcare, BR-1003-52 diluted in Milli-Q water). Injections of monomeric alpha-synuclein (aSyn) (Boston Biochem, SP-485), increasing in concentration from 0.62-50 nM prepared from serial 2-fold dilutions, were performed with contact times of 300 sec/injection at a flow rate of 30 μL/min. A dissociation phase of 900 sec followed the final 50 nM injection. Regeneration of the sensor to the goat anti-mouse antibody layer was achieved using 3 regenerations of 10 mM Glycine pH 1.7. […] Regeneration of the sensor to the goat anti-mouse antibody layer was achieved using 3 regenerations of 10 mM Glycine pH 1.7. Results obtained from single-cycle kinetics were evaluated by Biacore T200 evaluation software with 1:1 binding homogenous Langmuir model (with a global Rmax) with Cycle 5 as a blank subtraction. […]

Binder | binding result (82-96aa) | binding result (118-132aa) | binding result (127-140aa) | binding result (1-14aa [2]) | binding result (1-15aa [3]) | binding result (46-60aa) | koff [5] [s⁻¹] | kon [5] [M⁻¹ s⁻¹] | koff (alpha-synuclein fibrils [6]) [s⁻¹] | kon (alpha-synuclein fibrils [6]) [M⁻¹ s⁻¹] | binding result (10-24aa [8]) | other results
B1 | no binding (tested: supernatant 1/100) | no binding (tested: supernatant 1/100) | no binding (tested: supernatant 1/100) | no binding (tested: supernatant 1/100) | no binding (tested: supernatant 1/100) | no binding (tested: supernatant 1/100) |  |  |  |  |  | aggregation half-time (τ1/2) of seeded alpha-synuclein aggregation, ThT; no antibody 26.9 hours (alpha-synuclein seeds): 34.2 h; binding result (91-105aa [1]): no binding (tested: supernatant 1/100); binding result (10-24aa [4]): binds
B2 | no binding (tested: supernatant 1/100) | no binding (tested: supernatant 1/100) | no binding (tested: supernatant 1/100) |  |  | no binding (tested: supernatant 1/100) | 6.36e-05 | 165000 | 0.000405 | 57300 |  | Kd [5]: 0.4 nM; Kd (alpha-synuclein fibrils [6]): 8.3 nM; binding result (64-78aa): no binding (tested: supernatant 1/100); EC50 (read off the curve) [7]: ~0.04 µg/mL; binding result (28-42aa): binds
B3 | no binding (tested: supernatant 1/100) | no binding (tested: supernatant 1/100) | no binding (tested: supernatant 1/100) |  |  | no binding (tested: supernatant 1/100) |  |  |  |  | no binding (tested: supernatant 1/100) | binding result (91-105aa [1]): no binding (tested: supernatant 1/100); binding result (1-14aa [9]): binds; binding result (1-15aa [10]): binds
B4 | no binding (tested: supernatant 1/100) | no binding (tested: supernatant 1/100) | no binding (tested: supernatant 1/100) | no binding (tested: supernatant 1/100) | no binding (tested: supernatant 1/100) | no binding (tested: supernatant 1/100) |  |  |  |  | no binding (tested: supernatant 1/100) | binding result (91-105aa [11]): binds
B5 | no binding (tested: supernatant 1/100) | no binding (tested: supernatant 1/100) | no binding (tested: supernatant 1/100) | no binding (tested: supernatant 1/100) | no binding (tested: supernatant 1/100) | no binding (tested: supernatant 1/100) |  |  |  |  | no binding (tested: supernatant 1/100) | binding result (91-105aa [11]): binds
B6 |  |  |  |  |  |  | 0.0737 | 735000 | 1.34e-07 | 4760 |  | Kd (alpha-synuclein fibrils [12]): 0.041 nM; Kd [13]: 97 nM
B7 |  |  |  |  |  |  | 0.000541 | 33500 | 0.000829 | 338 |  | Kd (alpha-synuclein fibrils [12]): 2460 nM; Kd [13]: 16.2 nM
